Tested on: MS2 coat protein
Test: apparent KD of MS2 coat protein; designed switch direction (-1 OFF switch, 1 ON switch): -1; higher = weaker reporter binding
How it was run: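 Each step of the titration lasted 0.8–1.5 h at the lowest concentration and 10–20 min at the highest. The protein, SNAP-549-labelled MS2 coat protein, went from 0.7 or 1.5 nM doubling to 3 µM over RNA switches transcribed on Illumina chips by stalled E. coli RNA polymerase. Normalised cluster fluorescence was curve-fitted, and the per-design median over clusters is given as apparent KD.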

[1] = input ligand: microRNA oligo, concentration not stated

Sequence	apparent KD of MS2 coat protein (input ligand: FMN 200 uM) [nM]	apparent KD of MS2 coat protein [1] [nM]	apparent KD of MS2 coat protein (input ligand: none) [nM]
GUUCGUGGGCAAGGAUAUCCUACGCUGUUCUGGUUCGUGUCUGUCACAUGAGGAUCACCCAUGUGGGAGAAGGUGCAUUUGGGU [Design 57] (Eterna round: R96, puzzle: Exclusion NG 2)	18.9	15.1	20.1
GUUCUGUCAGGAUAUCAAUCCGCCUGUGAUACGCAGGCGGCUGAGAAGGGACAUGAGGAUCACCCAUGUAAAGA [jl-ex4-4.23 ViennaUCT mod] (Eterna round: R97, puzzle: Exclusion 4)	74		41.2
GUUGUUUAUGUAGGAUAUGCCUGGCGUGCCUAAGCAGAAGGACAUGAGGAUCACCCAUGUAUUGCGGUCUGCGUUCAGAUCGCU [salish99_ExNG1_r4_019] (Eterna round: R96, puzzle: Exclusion NG 1)	36.8	17.2	23.8
GUUUACAAGCUAAGAUCCUACAUGAGGAUCACCCAUGUGGUCCGGUGACGUGAGUCACCGGACUUAGCUCGUCUUGA [salish99_S_TOV1_R5_092] (Eterna round: R97, puzzle: Sensor, turn-off variant 1)	32.4		31
GUUUAGCAAGCGAGAUCCCACAUGAGGAUCACCCAUGUGCAUCCAGAAUUACUGGGUGCAAAAGCUCGUCUUAUAUG [mod-El /newdang-1] (Eterna round: R97, puzzle: Sensor, turn-off variant 1)	71.8		71.8
GUUUCACAUGAGGAUCACCCAUGUGAGGAUAUCCAUUUGUUAACCGUAGUUAAUAGAUGGAGAAGGCGCGUGAU [JRxlusion 6 - Jieux - Exclusion 1] (Eterna round: R97, puzzle: Exclusion 1)	66.6		62.9
GUUUCACAUGAGGAUCACCCAUGUGAGGAUAUGUUUUUAAAAGCAAUAGUUUUUGAAAACAGAAGGCGCGUGAU [JR_Exc1_Sub008] (Eterna round: R97, puzzle: Exclusion 1)	71.6		60.5
GUUUCGAGACGGAGAUCCGACAUGAGGAUCACCCAUGUCUCGCAAGCUUUUUGCUCGUCUUAUACUCCUCUGUUCUC [Elimod 46 - Jieux - Sensor, turn-off variant 1] (Eterna round: R97, puzzle: Sensor, turn-off variant 1)	20.9		21.9
GUUUUAUAUGAAGGAUAUACUUAACAUGAGGAUCACCCAUGUGGUGUUGUGAGUGAGUGAGUUUAGUAGAAGGUCAAGUAUUUU [JMF's solution 56] (Eterna round: R96, puzzle: Exclusion NG 2)	335	231	319
GUUUUAUAUGAAGGAUAUACUUAACAUGAGGAUCACCCAUGUGGUGUUGUGAGUGAGUGAGUUUAGUAGAAGGUCAAUUAUUUU [JMF's solution 33] (Eterna round: R96, puzzle: Exclusion NG 2)	409	174	184
GUUUUCAGACGGAGAUCCUACAUGAGGAUCACCCAUGUCUCACAAGCUAAUUGCUCGUCUUAUUCUCCUCUGUUCUC [Elimod 40 - Jieux - Sensor, turn-off variant 1] (Eterna round: R97, puzzle: Sensor, turn-off variant 1)	21.8		24.3
GUUUUGGGAGGAUAUAUGUGGAUAAUUUUUAUAUGAAAUUUACAUGAGGAUCACCCAUGUAGAAGGUCUAGAGC [-18.5, -15.1 kcal, 31% A] (Eterna round: R97, puzzle: Exclusion 2)	476		261
UAAACAUGGAUAUAACAGUACAUGAGGAUCACCCAUGUUAAUAUGAUAAAUUAUAACAAGUUUUUUUGUCGUCUUAA [Feeding at the Trough] (Eterna round: R97, puzzle: Sensor, turn-off variant 1)	47		190
UAAAUGUCAGGAUAUUGUUAAUUUAGUUGUUUGUAUUAGUUCGAGAAGGGACAUGAGGAUCACCCAUGUUAUUU [Ex4 #55] (Eterna round: R97, puzzle: Exclusion 4)	33.6		31.9
UAACUAACUCCUCGGAGCAACAUGAGGAUCACCCAUGUUAUGAACAUUCGGUGUAACAGGAUGUUUGCUCGUCUGGA [Eternabot (Original) Solution 22] (Eterna round: R97, puzzle: Sensor, turn-off variant 1)	266		259

Reference: the supplement of paper PMC9170038
